{
  "source": "patent US20260234121A1",
  "about": "“DERIVATIVES, IMMUNOGENS, AND ANTIBODIES AND USE OF THE SAME IN DETECTION OF ECSTASY-CLASS COMPOUNDS” (Siemens Healthcare Diagnostics Inc., priority 2023, published 2026)",
  "key": {"[1]": {"assay": "Prototype EMIT ecstasy assay, cross-reactivity with methamphetamine", "format": "biochemical", "settings": "conjugate Compound 58; negative urine pool"}, "E1-OVA (55)": {"system": "E1-OVA (55)", "assay": "ELISA binding of hybridoma supernatant to E1-OVA (55) coated plates, without inhibitor", "settings": "hybridoma supernatant mixed with PBS alone", "protocol": "All ELISA steps were performed at rt. Wells of a Nunc Maxi-Sorp™ flat-bottom ELISA plates (ThermoFisher Scientific, Waltham, MA) were coated with 50 μL E1-OVA (55), E2-OVA (65), and E3-OVA (72) at a concentration of 1 μg/mL in PBS for 1 h. The plates were flicked dried and remaining binding sites were blocked with 200 μL per well of blocking solution (0.5% casein, 0.05% (v/v) Tween 20 in PBS) for one hour. Plates were washed six times with MilliQ water containing 0.05% (v/v) Tween 20 on Biotek 405 LS plate washer equipped with microplate Biostacker 3 (Biotek, Winooski, VT). 50 μL of serially diluted antibody samples (serial dilutions of serum, hybridoma supernatant, or monoclonal antibodies in PBS) were added to each well and incubated for one hour. Unbound antibodies were removed by washing as described above, and 50 μL of secondary goat anti-rabbit IgG HRP or goat anti-mouse IgG (Fc)-HRP conjugate (ThermoFisher Scientific, USA), diluted 1:3,000 in the blocking solution was added to each well for detection bound rabbit or mouse antibody, respectively. Plates were incubated for one hour, washed and 100 μL of TMB substrate (Moss, Pasadena, MD) was added for 15 min to determine bound peroxidase. Optical density (OD) of the samples at 650 nm was measured using an ELISA plate reader (Molecular Devices LLC., San Jose, CA). The titer of each serum sample was designated as the maximum dilution that yielded at least twice the absorbance of the same dilution of the nonimmune control serum.\nThe supernatants were screened in a competitive ELISA for the presence of anti-ecstasy compound monoclonal antibodies (mAbs) as follows. 25 μL of the hybridoma supernatant was mixed with equal volume of PBS alone or containing 20 μg/mL inhibitor (MDA or MDMA) were incubated for 1 h in the wells of E1-OVA (55) coated ELISA plates. The plates were washed and the presence of bound mAbs were detected using goat anti-mouse IgG (Fc)-HRP conjugate and TMB substrate as described above. The level of inhibition of mAb/E1-OVA (55) binding in the presence of the inhibitor was estimated using a Percent (%) Inhibition calculated by the below formula:\n[formula] • where “OD650 nm w/o Inhibitor” is the binding response of the antibody sample diluted in PBS alone (with no inhibitor), and the “OD650 nm with Inhibitor” is the binding response of the same antibody sample in the presence of 10 μg/mL of inhibitor (i.e., MDA or MDMA). […]"}, "[2]": {"assay": "Prototype EMIT ecstasy assay, cross-reactivity with amphetamine", "format": "biochemical", "settings": "conjugate Compound 58; negative urine pool"}},
  "data": [
    {"molecule": "178K 3C8 mAb: mouse monoclonal antibody raised against E1-KLH (56); IgG1, κ; heavy chain SEQ ID NO 88, light chain SEQ ID NO 112 (antibody) heavy: MNFGLSLIFLVLILKGVQCEVQLVESGGDLVKPGESLKLACAASGFTFSRDVMSWVRQTPDKRLEWVATISSNGIYIYYTDSVKGRFTISRDNAKNTLYLQLSSLRSEDTAVYYCSRGNNLDSWGQGTTLTVSSAKTTPPSVYPLAPGSAAQTNSMVTLGCLVKGYFPEPVTVTWNSGSLSSGVHTFPAVLQSDLYTLSSSVTVPSSTWPSETVTCNVAHPASSTKVDKKIVPRDCGCKPCICTVPEVSSVFIFPPKPKDVLTITLTPKVTCVVVDISKDDPEVQFSWFVDDVEVHTAQTQPREEQFNSTFRSVSELPIMHQDWLNGKEFKCRVNSAAFPAPIEKTISKTKGRPKAPQVYTIPPPKEQMAKDKVSLTCMITDFFPEDITVEWQWNGQPAENYKNTQPIMDTDGSYFIYSKLNVQKSNWEAGNTFTCSVLHEGLHNHHTEKSLSHSPGK light: MRFSAQLLGLLVLWIPGSTADIVMTQAAFSNPVTLGTSASISCRSSKSLLHRNGITYLYWYLQKPGQSPQLLIYQMSNLASGVSDRFSSSGSGTDFTLRISRVEAEDVGVYFCGQDLELPYSFGGGTKLEIKRADAAPTVSIFPPSSEQLTSGGASVVCFLNNFYPKDINVKWKIDGSERQNGVLNSWTDQDSKDSTYSMSSTLTLTKDEYERHNSYTCEATHKTSTSPIVKSFNRNEC", "values": [
      {"measurement": "Concentrations (μg/mL) of Structurally Related Compounds Equivalent to 500 ng/mL MDMA Cutoffs, (+/−) mAmph", "setting": "[1]", "result": 50, "unit": "µg/mL"},
      {"measurement": "E1-OVA (55) Binding, OD650 nm w/o inhib", "setting": "E1-OVA (55)", "result": 2.389, "unit": "OD650 nm"},
      {"measurement": "Concentrations (μg/mL) of Structurally Related Compounds Equivalent to 500 ng/mL MDMA Cutoffs, (+/−) Amph", "setting": "[2]", "result": 30, "unit": "µg/mL"}
    ]},
    {"molecule": "178K 5B11 mAb: mouse monoclonal antibody raised against E1-KLH (56); IgG1, κ; heavy chain SEQ ID NO 90, light chain SEQ ID NO 114 (antibody) heavy: MNFGLSLIFLALILKGVQCEVQLVESGGDLVKPGGSLKLSCAASGFSFSAYVMSWVRQTPDKRLEWVATISRGGSYIYYPDSVKGRFTISRDDARDTLYLQMTSLKSEDTAVYYCSGGNNLDYWGQGTALTVSSAKTTPPSVYPLAPGSAAQTNSMVTLGCLVKGYFPEPVTVTWNSGSLSSGVHTFPAVLQSDLYTLSSSVTVPSSTWPSETVTCNVAHPASSTKVDKKIVPRDCGCKPCICTVPEVSSVFIFPPKPKDVLTITLTPKVTCVVVDISKDDPEVQFSWFVDDVEVHTAQTQPREEQFNSTFRSVSELPIMHQDWLNGKEFKCRVNSAAFPAPIEKTISKTKGRPKAPQVYTIPPPKEQMAKDKVSLTCMITDFFPEDITVEWQWNGQPAENYKNTQPIMDTDGSYFIYSKLNVQKSNWEAGNTFTCSVLHEGLHNHHTEKSLSHSPGK light: MRFSAQLLGLLVLWIPGSTADIVMTQAAFSNPVTLGTSASISCRSSKSLLQINGITYLYWYLQKPGQSPQLLIYQMSNLASGVPDRFSSSGSGTDFTLRISRVEAEDVGVYYCGQDLELPYTFGGGTKLEIKRADAAPTVSIFPPSSEQLTSGGASVVCFLNNFYPKDINVKWKIDGSERQNGVLNSWTDQDSKDSTYSMSSTLTLTKDEYERHNSYTCEATHKTSTSPIVKSFNRNEC", "values": [
      {"measurement": "Concentrations (μg/mL) of Structurally Related Compounds Equivalent to 500 ng/mL MDMA Cutoffs, (+/−) mAmph", "setting": "[1]", "result": "30 to 50", "unit": "µg/mL"},
      {"measurement": "E1-OVA (55) Binding, OD650 nm w/o inhib", "setting": "E1-OVA (55)", "result": 2.893, "unit": "OD650 nm"},
      {"measurement": "Concentrations (μg/mL) of Structurally Related Compounds Equivalent to 500 ng/mL MDMA Cutoffs, (+/−) Amph", "setting": "[2]", "result": "25 to 30", "unit": "µg/mL"}
    ]},
    {"molecule": "178H 2A7 mAb: mouse monoclonal antibody raised against E1-KLH (56); IgG1, κ; heavy chain SEQ ID NO 82, light chain SEQ ID NO 106 (antibody) heavy: MNFGLSLISLALILKGVQCEVHLVESGGDLVKPGGSLKLSCAASGFTFSSYVMSWVRQTPDKRLEWIATISYGGGHYTYYPDSVKGRFTISRDNAKNTLYLQMNSLKSDDTAMYYCSSGNALNYWGQGTSVTVSSAKTTPPSVYPLAPGSAAQTNSMVTLGCLVKGYFPEPVTVTWNSGSLSSGVHTFPAVLQSDLYTLSSSVTVPSSTWPSQTVTCNVAHPASSTKVDKKIVPRDCGCKPCICTVPEVSSVFIFPPKPKDVLTITLTPKVTCVVVDISKDDPEVQFSWFVDDVEVHTAQTKPREEQINSTFRSVSELPIMHQDWLNGKEFKCRVNSAAFPAPIEKTISKTKGRPKAPQVYTIPPPKEQMAKDKVSLTCMITNFFPEDITVEWQWNGQPAENYKNTQPIMDTDGSYFVYSKLNVQKSNWEAGNTFTCSVLHEGLHNHHTEKSLSHSPGK light: MRFSAQLLGLLVLWIPGSTADIVMTQAAFSNPVTLGTSASISCRSSKSLLHYTGITYLYWYLQKPGQSPQLLIYQMSNLASGVPDRFSSSGSGTDFTLRISRVEAEDVGVYYCGQDLELPYSFGSGTKLEIKRADAAPTVSIFPPSSEQLTSGGASVVCFLNNFYPKDINVKWKIDGSERQNGVLNSWTDQDSKDSTYSMSSTLTLTKDEYERHNSYTCEATHKTSTSPIVKSFNRNEC", "values": [
      {"measurement": "Concentrations (μg/mL) of Structurally Related Compounds Equivalent to 500 ng/mL MDMA Cutoffs, (+/−) mAmph", "setting": "[1]", "result": "30 to 40", "unit": "µg/mL"},
      {"measurement": "E1-OVA (55) Binding, OD650 nm w/o inhib", "setting": "E1-OVA (55)", "result": 2.900, "unit": "OD650 nm"},
      {"measurement": "Concentrations (μg/mL) of Structurally Related Compounds Equivalent to 500 ng/mL MDMA Cutoffs, (+/−) Amph", "setting": "[2]", "result": "40 to 45", "unit": "µg/mL"}
    ]},
    {"molecule": "178F 4C12 mAb: mouse monoclonal antibody raised against E1-KLH (56); IgG1, κ; heavy chain SEQ ID NO 80, light chain SEQ ID NO 104 (antibody) heavy: MNFGLSLIFLALILKGVQCEVQLVESGGDLVKPGGSLKLSCAASGFTFSRFVMSWVRQTPDKRLEWVATISSGGIHTYYLDSVKGRVTIFRDNAKNTLYLQMSSLESEDTAMYYCAAGNALDYWGQGTSVTVSSAKTTAPSVYPLAPVCGGTTGSSVTLGCLVKGYFPEPVTLTWNSGSLSSGVHTFPALLQSGLYTLSSSVTVTSNTWPSQTITCNVAHPASSTKVDKKIEPRVPITQNPCPPLKECPPCAAPDLLGGPSVFIFPPKIKDVLMISLSPMVTCVVVDVSEDDPDVQISWFVNNVEVHTAQTQTHREDYNSTLRVVSALPIQHQDWMSGKEFKCKVNNRALPSPIEKTISKPRGPVRAPQVYVLPPPAEEMTKKEFSLTCMITGFLPAEIAVDWTSNGRTEQNYKNTATVLDSDGSYFMYSKLRVQKSTWERGSLFACSVVHEGLHNHLTTKTISRSLGK light: MRFSAQLLGLLVLWIPGSTADIVMTQAAFSNPVTLGTSGSVSCRSSKSLLHSNGITYLYWYLQKPGQSPQLLIYQMSNLASGVPDRFSSTGSGTDFTLRISRVEAEDVGVYYCGQDLELPYSFGSGTKLEIKRADAAPTVSIFPPSSEQLTSGGASVVCFLNNFYPKDINVKWKIDGSERQNGVLNSWTDQDSKDSTYSMSSTLTLTKDEYERHNSYTCEATHKTSTSPIVKSFNRNEC", "values": [
      {"measurement": "Concentrations (μg/mL) of Structurally Related Compounds Equivalent to 500 ng/mL MDMA Cutoffs, (+/−) mAmph", "setting": "[1]", "result": "40 to 50", "unit": "µg/mL"},
      {"measurement": "E1-OVA (55) Binding, OD650 nm w/o inhib", "setting": "E1-OVA (55)", "result": 2.836, "unit": "OD650 nm"},
      {"measurement": "Concentrations (μg/mL) of Structurally Related Compounds Equivalent to 500 ng/mL MDMA Cutoffs, (+/−) Amph", "setting": "[2]", "result": "40 to 45", "unit": "µg/mL"}
    ]},
    {"molecule": "178F 4H5 mAb: mouse monoclonal antibody raised against E1-KLH (56); IgG2a, κ; heavy chain SEQ ID NO 81, light chain SEQ ID NO 105 (antibody) heavy: MNFGLSLIFLALILKGVQCEVQLVESGGDLVQPGGSLILSCVASGFTFRNYVMSWIRQTPDKRLEWVATINSGGSYTYYPDTVKGRFTISRDNAKSTLYLQMSSLKSEDTAMYYCASGNFLDYWGQGTSVTVSSAKTTPPSVYPLAPGSAAQTNSMVTLGCLVKGYFPEPVTVTWNSGSLSSGVHTFPAVLQSDLYTLSSSVTVPSSTWPSQTVTCNVAHPASSTKVDKKIVPRDCGCKPCICTVPEVSSVFIFPPKPKDVLTITLTPKVTCVVVDISKDDPEVQFSWFVDDVEVHTAQTKPREEQINSTFRSVSELPIMHQDWLNGKEFKCRVNSAAFPAPIEKTISKTKGRPKAPQVYTIPPPKEQMAKDKVSLTCMITNFFPEDITVEWQWNGQPAENYKNTQPIMDTDGSYFVYSKLNVQKSNWEAGNTFTCSVLHEGLHNHHTEKSLSHSPGK light: MRFSAQLLGLLVLWIPGSTADIVMTQAAFSNPVTLGTSASISCRSSKSLLNSYGITYLYWYLQKPGQSPQLLIYQMSNLASGVPDRFSSSGSGTDFTLRISRVEAEDVGVYYCGQDLELPYTFGSGTQLEIKRADAAPTVSIFPPSSEQLTSGGASVVCFLNNFYPKDINVKWKIDGSERQNGVLNSWTDQDSKDSTYSMSSTLTLTKDEYERHNSYTCEATHKTSTSPIVKSFNRNEC", "values": [
      {"measurement": "Concentrations (μg/mL) of Structurally Related Compounds Equivalent to 500 ng/mL MDMA Cutoffs, (+/−) mAmph", "setting": "[1]", "result": "30 to 40", "unit": "µg/mL"},
      {"measurement": "E1-OVA (55) Binding, OD650 nm w/o inhib", "setting": "E1-OVA (55)", "result": 2.948, "unit": "OD650 nm"},
      {"measurement": "Concentrations (μg/mL) of Structurally Related Compounds Equivalent to 500 ng/mL MDMA Cutoffs, (+/−) Amph", "setting": "[2]", "result": 30, "unit": "µg/mL"}
    ]}
  ]
}
